Where two headings read alike, the source gives them in different places.
T1: full-length recombinant FC27 MSP2 (Plasmodium falciparum, UniProt P19260 21-261)
T1 chain: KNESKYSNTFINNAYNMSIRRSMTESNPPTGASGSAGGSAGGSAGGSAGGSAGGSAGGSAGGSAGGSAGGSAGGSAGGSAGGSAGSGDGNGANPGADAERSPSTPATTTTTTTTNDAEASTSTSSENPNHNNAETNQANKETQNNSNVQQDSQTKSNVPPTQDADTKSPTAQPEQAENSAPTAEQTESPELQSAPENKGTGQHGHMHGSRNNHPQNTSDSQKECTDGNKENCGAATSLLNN

T2: full-length recombinant 3D7 MSP2 (Plasmodium falciparum, UniProt P50498 21-246)
T2 chain: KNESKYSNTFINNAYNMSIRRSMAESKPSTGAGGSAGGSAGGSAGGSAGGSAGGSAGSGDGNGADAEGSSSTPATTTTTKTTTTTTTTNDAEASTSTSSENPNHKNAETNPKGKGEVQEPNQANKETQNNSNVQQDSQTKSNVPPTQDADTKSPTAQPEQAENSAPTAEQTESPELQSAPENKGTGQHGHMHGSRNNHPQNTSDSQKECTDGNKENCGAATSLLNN

B1: mouse monoclonal antibody 6D8 (antibody, V domains shown)
VH: QVQLQQSGDELVKPGASVKLSCTVSGFNIKDDFIHWMKQRPEQGLEWIGRIDPANGYTKYAPKFQDKATMTADTSSNTAYLQLSSLASEDAAVYYCATYGVAYWGQGTLVTVSA
VL: DIVLTQSPASLAVSLGQRATISCKASQSVDHDGDSYMNWFQQKPGQSPKLLIYAASNLESGIPARFSGSGSGTDFTLNIHPVEEEDAATYYCQQTNEDPYTFGGGTKLEIK
B2: 6D8 scFv (scFv, V domains shown)
VH: B1 VH
VL: B1 VL

Assays:
Assay in all cases: ITC
[1] = molecular target: T1, full-length recombinant FC27 MSP2
[2] = molecular target: T2, full-length recombinant 3D7 MSP2
[3] = molecular target: T1, full-length recombinant FC27 MSP2
[4] = molecular target: T2, full-length recombinant 3D7 MSP2
6D8 scFv = molecular target: B2

Row | Binder | Kd [1] | Kd [2] | Kd [3] | Kd [4] | Kd (6D8 scFv)
1 | B1 | 16 nM | 64 nM | – | – | –
2 | B2 | 13 nM | 61 nM | 13 nM | 61 nM | –
3 | NAYNMSIRRSMANEGSN [FC27-MSP2_(14-30)] | – | – | – | – | 16 nM
4 | NAYNMSIRRSMAESKPS [3D7-MSP2_(14-30)] | – | – | – | – | 64 nM

From PMC4428071 (2015)
